Laboratory results from the DeepSol protein solubility set.

Test: soluble on expression in E. coli; label from the status in PepcDB or PDB records

Row | Sequence | soluble on expression in E. coli
1 | MEDLLPTLPSLDHRDALPNALASPVLPAGQSDAQLVRTWLDTKYAAGLGIRASTRAQYALEAHRLLWYAHALGRPLASWQVADANGYLAFLADPPAHAVGDGRVRQDSPAWRPLRGPLSEASRRQTATIVGGLFEWLVGVEALRVNPFQAVPRARSARGPGSQRRFLEAEQLAAVFDAVEARPAPTLWAQLHKARDRLLLALLFHTGLRASEVTALTWPDFERQRGRHGDFWTVRIREAKGGSDQLVPCDNVMAELARFRQLVGLSPEPRATDTMAVVPAMAGGRQRLAPLTDTLALQRRLSRPVRTRQGLYTIVRQVFEAAAVRLEASGYAEGAANLRAASTHWLRHSHATHLLRAGVPVTDVQRTLRHRDINTTRRYTHEALEDVARSIGGKLPAVLEHHHHHH | not soluble
2 | MEDNIRIGKIILNLSNKISRQLNKEASAFGLTGVQAKLIGFIHHRSSTQDIFQKDIEEEFDIRRSSVTSALQLMEKKGYIKRVSVSDDARLKKIVLTEKGLELDKKVYDAIIKLENSLINEFDNDELHVLIDSLDRISKKIVDLEHHHHHH | soluble
3 | MEEAPFYRDTWVEVDLDAIYNNVTHIKEFIPSDVEIFAVVKGNAYGHDYVPVAKIALEAGATRLAVAFLDEALVLRRAGITAPILVLGPSPPRDINVAAENDVALTVFQKEWVDEAIKLWDGSSTMKYHINFDSGMGRIGIRERKELKGFLKSLEGAPFLELEGVYTHFATADEVETSYFDKQYNTFLEQLSWLKEFGVDPKFVHTANSAATLRFQGITFNAVRIGIAMYGLSPSVEIRPFLPFKLEPALSLHTKVAHIKQVIKGDGISYNVTYRTKTEEWIATVAIGYADGWLRRLQGFEVLVNGKRVPIVGRVTMDQFMIHLPCEVPLGTKVTLIGRQGDEYISATEVAEYSGTINYEIITTISFRVPRIFIRNGKVVEVINYLNDILEENLYFQ | soluble
4 | MEEEGSPDIIIVGAGISGLSTAVGLHRLGIRSMVLESSETLRATGFAFTTWFNAWKAMEALGVSQHIRSLHDRLEGWVVGTISAGTPPTEMLFPESEEYESRCVQRKLLLEALAGELPEETIRFSSKVVHIELSGCYKKVHLSDGTILKTKVLVGCDGVYSVVGKWLGFKNPATTARLAIRGLTHFPEGHGFGKRFFQFYGDGVRSGFIPCDHNTVYWFLTHTSTDIDEETNSEILKEFVLNKIKDLPENIKNVVETTDLDSMVMSQLKYRPPWELLWSNITKDNVCVAGDALHPMTPDIGQGGCSAMEDGVILARCLGEAIKAKSLKGETEENEEEGYKRIEEGLKKYAGERKWRSIDLITTAYTVGFIQQSRGKWMNMFRDRFLSSYLSRMLLKKSHFDCGSLVP | soluble
5 | MEEEVSRKTVAISVQAAKLTGRVLFMACQKFLAGVQKHNRDALTPHGRQTVKQLMGHTGQSNSIQLKGDARLFDRVARKFNVDYAFHKVGPKDYLLFFKAGQADAITAAFSEYTKRVMARQNDKPSIRRGLRQAMGRVKPRQKEREKTREAVQER | not soluble
6 | MEEMRDNDVPVQQALFDMGPDEEVGYRVPIACQVAGITYRQLDYWARTKLVEPTIRTARGSGSQRLYSFKDILVLKIVKRLLDTGISLQNIRLAVDKLRNRGVDDLAEITLVSDGTTVYECRSNEEVIDLLGGGQGVFGIAVPGIVRELTGTISSFPSEKISDFLSNSPAAGGIDELAARRLRKTS | not soluble
7 | MEEWIQYARDMAKAEKELEIELWVIISFYRTTEQGGKVLLFRYDLPRKVADKYDWVVRWRRARLTCQYPKGNVTHTYCLYDRHSGEDYSFGSCLSSLAAAKAQVTRMERRIREYTTWQKQNNLFFDEQTDEMLQKAVTKLKIKKENVQEAERRLQRKAEKHQREMRK | not soluble
8 | MEEWVREQYGMRVERLERSGRHAAFWHRQERFLLVPADGQSEAEMEERQQMSRYLRAKGVDGVGELVKTTSGTYIASYNGQPLALVRAPLPASRFRSLGRELAVMHECGRTCPWPIVACRRIGQWRELWAKRIDQMEAFWSSKLASGPSSLFDRLFIESFPYYLGLAENAVQYVADTEIDEEPGRIDYAAFCHERLPEAKWVGGGEAKLPTDWVYDHCARDLAEWVRHLYEKSGLGCQRAVRQFFQEYEHAAPLSPFAWRLVYARLLFPLSYFECVEAYYIAVDESERTRREGELRRLLDRSHEYERFLASFAKIAGISNRIRLPAVEWLPPA | not soluble
9 | MEFIGDTRIVIINPLGAKKICRLTFEQIKVIYQEVKTHFENYRIIFTGLPQDLLTIPILEIETLPFDEFIYTVALTKYSDFVISVDTALVHIAAAYHKPTLAFYPNSRTPEYPSHLIWSPNHHKSIQIVSPTYTVKDIDTETLTNSVKRLSCIDKKLEHHHHHH | soluble
10 | MEFIPPKRMLELIKHYSTTFKNWYSVMLGIYLHRERIKCTLRNGQTLYLTPNEAVLLAGLRIIELDCNTVKFSFNGREITLRGWRLSDPGDSFSDYWRINVKGKRVLDIGAGVGDSSIYFSTMGAKEVVAVEIDKKKIELMRENLRTNGINNVIVVDKGVGTVDNENFISWERLIKDYGPFDDAKIDCDGCERLISPFIKEIPELLIEWDSDYKDVVKNLSKNGYKIRVEHTLKNLGFIYAKRE | soluble
11 | MEFNLHAVSSEEKERDFDVVIVGAGAAGFSAAVYAARSGFSVAILDKAVAGGLTAEAPLVENYLGFKSIVGSELAKLFADHAANYAKIREGVEVRSIKKTQGGFDIETNDDTYHAKYVIITTGTTHKHLGVKGESEYFGKGTSYCSTCDGYLFKGKRVVTIGGGNSGAIAAISMSEYVKNVTIIEYMPKYMCENAYVQEIKKRNIPYIMNAQVTEIVGDGKKVTGVKYKDRTTGEEKLIETDGVFIYVGLIPQTSFLKDSGVKLDERGYIVVDSRQRTSVPGVYAAGDVTSGNFAQIASAVGDGCKAALSLYSDSISKK | soluble
12 | MEFYNSTNEIPEEMLKGIDLTYPQLTYLPETGILYDNTYNEKTVPIISGGGSGHEPAHVGYVGSGMLAAAVTGPLFIPPKSKNILKAIRQVNSGKGVFVIIKNFEADLKEFNEAIKEARTEGIDVRYIVSHDDISVNAYNFHKRHRGVAGTILLHKILGAFAKEGGSIDEIEQLALSLSPEIYTLGVALAPVHFPHQKTSFVLAEDEVSFGIGIHGEPGYRVEKFEGSERIAIELVNKLKAEINWQKKANKNYILLVNGLGSTTLMELYSFQYDVMRLLELEGLSVKFCKVGNLMTSCDMSGISLTLCSVKDPKWLDYLNVPTGAFAWLEHHHHHH | soluble
13 | MEGEAELWNFLERHLRSIYEGDWATYEATTHEELSLYEWFVTPHRLDGLPFHRFMVEKNWATRGRAYRLDLLEKRLQRYGDVAIFSYTLLLTVEEEAGLRHRAVNESRVAVRFPEGWKVVHVHKSPAG | soluble
14 | MEGIDMLDIKLIRENPELVKNDLIKRGELEKVKWVDEILKLDTEWRTKLKEINRLRHERNKIAVEIGKRRKKGEPVDELLAKSREIVKRIGELENEVEELKKKIDYYLWRLPNITHPSVPVGKDENDNVPIRFWGKARVWKGHLERFLEQSQGKMEYEILEWKPKLHVDLLEILGGADFARAAKVSGSRFYYLLNEIVILDLALIRFALDRLIEKGFTPVIPPYMVRRFVEEGSTSFEDFEDVIYKVEDEDLYLIPTAEHPLAGMHANEILDGKDLPLLYVGVSPCFRKEAGTAGKDTKGIFRVHQFHKVEQFVYSRPEESWEWHEKIIRNAEELFQELEIPYRVVNICTGDLGYVAAKKYDIEAWMPGQGKFREVVSASNCTDWQARRLNIRFRDRTDEKPRYVHTLNSTAIATSRAIVAILENHQEEDGTVRIPKVLWKYTGFKEIVPVEKKERCCAT | soluble
15 | MEGQRWLPLEANPEVTNQFLKQLGLHPNWQFVDVYGMDPELLSMVPRPVCAVLLLFPITEKYEVFRTEEEEKIKSQGQDVTSSVYFMKQTISNACGTIGLIHAIANNKDKMHFESGSTLKKFLEESVSMSPEERARYLENYDAIRVTHETSAHEGQTEAPSIDEKVDLHFIALVHVDGHLYELDGRKPFPINHGETSDETLLEDAIEVCKKFMERDPDELRFNAIALSAA | soluble
16 | MEGSQQTITSKQLVRMLKDASRGSKGKGSGEMKFCFLIGAGASISSGIPSGAKLAWDWLQQIKEDCDGEDFEDWKIEIKMPDQHIEERVGEFYPEIYEKRFGHAPETGYDYIRGLMEGREPSLGYLILANIMVREKHNVVITTNFDNLLEDAIRTYTKEKPFIAGHEALADYVPKRSDRPIILKLHRDLFLQPFSDQLNTDILQAAWESILGKFLSDYHLIVLGYGGNDGSLMNYLLKLKNRKPIYWCVRNTDKATSKSLWNTLSPKAKRLLKNDGYLVPIDDFDRFMYDCYAALGYKFLEGIEKIEKPKSIHEILKPNYARIESIQTQLRQLSQTEEELSKESFQSIKSFLPDSWMWILKANQEKDIDKKDKIYREGIAKYPQDANLLGDYADFLCDICHD | not soluble
17 | MEHIRRVAELAREIARNNGLDPERAYLAGLLHDAARDLPEEELRRLAPPENEVEEAHPLALHGRAARALAASWGVRDEEVLEAIEGHVYGVDPENGIGMALYVADVSEPGRGVNEEIRELALAGRLKEAYRLAVRNKVHYLKAKKIPIHPRTLEVYHSL | soluble
18 | MEHTIAVIPGSFDPITYGHLDIIERSTDRFDEIHVCVLKNSKKEGTFSLEERMDLIEQSVKHLPNVKVHQFSGLLVDYCEQVGAKTIIRGLRAVSDFEYELRLTSMNKKLNNEIETLYMMSSTNYSFISSSIVKEVAAYRADISEFVPPYVEKALKKKFK | not soluble
19 | MEIEVVYQHSDFIIINKSEGISVHKDQEEQGLTELVAKQLNVPKVWLVHRLDKVTSGLLILALNAESAAEFSRLFSEHKIHKTYLALSNQKPKKKQGLIIGDMKKAREGAWKLCQTKDNPAITRFESVSCEPNLRLFILKPQTGKTHQLRVAMKSLGSPILGDGLYGKNTEKIDRTYLHATQLEFDYLNNFISVTCLPSQGQFWIKPTVFEQIQVYLTKPFLSKLEHHHHHH | soluble
20 | MEIGQRVRINFEVATVRYIGEVDGYGSQRWVGLEWDDPTRGKHDGIVRGKRYFQTRHPNGGSLMKHEIVPKPTDLLFEIKDRYIEEESVETEIELAQSNKKIELIGMDQTAAKQSNIEKLINIVLDNRSVGFPPSSDSPQFILCRELNLYGNLLYKWKTVRQILEYFPRIQELNLRRNRMQCFNEEEDDDESEGDDHVYSDSCKKLVISECNLSENSIDSILLRFPSTSDVVAFGNDLTRFSVSEAVSSRLTSLDLEDNPFKTLDSIHGTFPNLTQLSVANCGITSLNGFDGSIKFPKLEYLNIKRNSIVEWKSVNSIRSLKSLKRLLFDCKKLSTEKGVHAYEIVIAKLSTLIDLNRFDVSEVERRSAEIRFLNKYAGLNDNEDHQDDIKRLIEIHGEPTLDTAKKGLAVVKIRIECGNRVETRRLPLGMSIQKIRDMLARLFKVPNTSKIRLYLVMSEKAKQHRIELENPLREFGHYSPSEDRDILVVEHD | not soluble
21 | MEIKEITIIGGYDKNGNPEPVREVTIKRGEIVGVVGPTGSGKSNLISDIEQLAQGDTISKRRILVNGEVPPIEMRRDPKKRRIAQLSQNMNFLADMTVEEFILMHAKSRGVYRENIVDEVIELANRLTGEPIKKDYNLTILSGGQSRSLMVADVAVISDSPIVLIDEIENAGIKKHEALELLAGYGKIVLVITHDPVLALMTDRRIVMRNGGMQKIIETTEEEKEISRKINEVDNWLLSLREKIRFGERLTHEDISLMVKG | soluble
22 | MEIKLEEILKKQPLYSGKAKSIYEIDDDKVLIEFRDDITAGNGAKHDVKQGKGYLNALISSKLFEALEENGVKTHYIKYIEPRYMIAKKVEIIPIEVIVRNIAAGSLCRRYPFEEGKELPFPIVQFDYKNDEYGDPMLNEDIAVALGLATREELNKIKEIALKVNEVLKKLFDEKGIILVDFKIEIGKDREGNLLVADEISPDTMRLWDKETRDVLDKDVFRKDLGDVIAKYRIVAERLGLL | soluble
